Data on two substances can be found in patent US20160058856A1.

For experiment [1], the target named is MHC class I molecule H-2K^d on CT26 target cells (mouse) (UniProt P01902). The experiment can be described thus: cell-based or functional assay.
Experiment [2] addresses MHC class I molecule H-2L^d on CT26 target cells (mouse) (UniProt P01897). The experiment can be described thus: cell-based or functional assay.
Sequence of UniProt P01897 (P01897 25-362): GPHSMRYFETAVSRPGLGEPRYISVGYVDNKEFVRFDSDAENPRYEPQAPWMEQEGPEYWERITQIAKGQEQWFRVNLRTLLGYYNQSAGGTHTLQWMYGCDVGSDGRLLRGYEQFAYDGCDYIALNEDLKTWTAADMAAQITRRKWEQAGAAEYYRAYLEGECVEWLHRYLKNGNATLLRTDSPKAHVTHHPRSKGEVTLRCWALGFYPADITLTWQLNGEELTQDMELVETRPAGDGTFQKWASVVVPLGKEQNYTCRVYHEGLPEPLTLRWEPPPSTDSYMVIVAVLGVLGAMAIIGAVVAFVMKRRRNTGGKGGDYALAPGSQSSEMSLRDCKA

Sequence of UniProt P01902 (P01902 22-368): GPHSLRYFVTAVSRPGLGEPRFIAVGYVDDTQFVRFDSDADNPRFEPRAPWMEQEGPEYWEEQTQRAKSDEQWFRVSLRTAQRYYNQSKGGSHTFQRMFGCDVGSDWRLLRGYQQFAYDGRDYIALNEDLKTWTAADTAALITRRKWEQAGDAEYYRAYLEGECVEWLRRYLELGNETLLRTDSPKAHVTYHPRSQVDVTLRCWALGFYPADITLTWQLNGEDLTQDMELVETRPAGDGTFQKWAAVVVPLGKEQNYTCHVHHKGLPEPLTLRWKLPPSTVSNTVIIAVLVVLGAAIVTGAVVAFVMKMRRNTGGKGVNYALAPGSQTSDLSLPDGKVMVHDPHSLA

Consider “anti-MHC class I monoclonal antibody H-2K^d: SF1-1.1.1 (eBioScience)”, for which the CTL activity (CFSE-based cytotoxicity assay, CT26 target cells pre-incubated with blocking antibodies) (fraction of the control values) in experiment [1] came out at 0.33.
As for “anti-MHC class I monoclonal antibody H-2L^d: 28-14-8 (BioLegend)”, in experiment [2], the CTL activity (CFSE-based cytotoxicity assay, CT26 target cells pre-incubated with blocking antibodies) (fraction of the control values) stood at 0.33.
